Assay: protease stability score; higher = more stable; yeast display proteolysis, trypsin and chymotrypsin;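 further: log10 excess protease needed over predicted unfolded state with 0 meaning unfolded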

Sequence	protease stability score
DEERLAKEVNDQYQHIMDTGDPDQARKLFDENARVDIGDKQYHGREEAVEAFQQRMNRVDHIDIKIDEVKVRNGEIDVKFEINQNSNGKNVHRNIRFTMRVNGDKYAIVDMHVQ	0.367
DEERLQKIIEKAFKVIQNGNKEEAQKLGKPNVEYHYLDKTLHGPKAVEHAVEHVKKVGAEVKQQEIEVHGGTAKAVFQYHVGDKTVQTTAEVTYEGDKMKKARVKISEEVKKMMHRG	-0.076
DEERMHQLEKLFRTNNFEEFAKQADKDVTAKVGNETYTGREDMEKFARRLREQVDSIHYDRVEVKGDKFKADAQFDFNGKRVRFTVEVEFHNGKLQHMRMQATTHELEETLAKLLS	1.41
DEERMHRLKKLFDTNDNEQMSKQASENARMQVGNKVFHGREDIEKFILEERRRADHITYKHVTEHGNKVQAHVVKVVNGRSIDVIFEVEIDNGRIKRMSIQARDSEDQNKAEKALS	0.345
DEERMLKVAETVIRAVRNGNADKAVKYIDEGGEATFGDTKLKGPEHIYEYVKKFKDQGIEVHYKEEHKEGDKVTVHTQAHLGDATADFEVHYQVKGDKLDRMEVRMDKEQLKKFRDS	-0.347
DEERNEKAAHEMLKVFQRGDPDQFRDLIDPNARANVGDKKYHGRENLTHMFKHFVHRADHLEMQHVKVSGETVEIHIRAKINGKTIDFTIRIIVDNGKAREINFDPDMLKRMRG	1.23
DEERNELAEHVVKAWHHNDPDRVQKLVDPNVRFEIGDKEVHGREEYARIQRTEKDQWDLQIEVKHITVHNGRVDVDFDWRIERDGRPRTNQQVVIFEVDNGKVKRVSFQERK	-0.279
DEERNERHAQDLMRALENNDEERLRQLLDKDAKLNVGDHEIHGSENIVKRLAEFLKRADHLRFERMTVRGDTVQISFEVEHDGERRKYEVHITVHNGHVQSITIQKQ	2.49
DEERNKEMKEVLETNDFKDLANQADENAKAQIGDKEYHGREEVRDAMKSLQERIDSVEVRDIHVQGDKFSIEAVMDVDGDKVDVVIEMRVHNGNIKFVRINARNESVKEKVEQVVS	1.79
DEERQDQAEEFWKILQTGDPDKAREELRDDVHVHVGDKVIHGMEDVDRDIERVRKQIRVEFDVRHIDSQGERISVEANIMENENGKPETAQLTVIIDMHNGRVVRIVFEKRK	1.96
DEERQHRVAKSLVDILKDGNPRKMKELMDKDATVRVGDKNIRGRKNIATFWTDVRRRIDHVEIKHVDVRGDKIDMNINFDVNGRHVHYTINARVRNGKLTSMHLDPDNLEHLKE	0.591
DEERQKEALKVHKKGDFDKILDQADEDVQVVIGDKKYHGREEATTALKKILDSIDHLKFESITIQNGRVRVDAILEFNGQQNRVIIVVEVHNGKVKKVEIRVTDPSQEDKLKKRVD	-0.203
DEERQQKVADDLATIMTNGNPDQMLELADKDVKAKYGDTEIHGREKVREYWKTIRDQADHIHIDTFKAENGQVDIQAHAKFNGKDYKFNLRIEFDNGRIKSIVVQEQ	0.278
DEERRDLAHRIFEAWKRNDPDTLRNLIDPNAKMVVGEDVLRGDEQIVKHVQDVHNRINMKIDIKSVRVEGDKVIVHAEVTANVNGRPVRIEVTFVIKNHNGKVKKIVIDVDPRDQRKMDS	-0.13
DEERRKNLAREYNKALTSGDENKVRRLADENVRIEIGDHVVSGRENLSKLVRDDQERVDRFRVQDVHVEGDKIQFDIQVEINGKTINITIEMQLHNGRIKKIKFDPRAVEQLKG	0.612
DEERSAHKFLKDMEKLMRTGDFQEVAKLFDKHAKVEVGDKRVHGREQIIRTNQQWEKRVDSVDLKIQHVSVKGEDVDVHYNMVLRYNGRNDNRVYRFVATVHGDKVRITHMELE	0.348
DEERSNLVESVFRALEHNDEKRLNELFDPNVNVQIGDDKIRGREELVKFMRTLKRQMRIRYRTMDLHVQGDKVVVRATFEVNVNGTPHNVTMEFHAEVHNGKFKHARIKIPEEKLKTMQS	1.57
DEERVERLARTAFKAAVNGDEDKLRKMLKPDVKYKYIDEEREGEDVAKFVVKLMKKIGAEVRLKRLEVRGDTVKADFDYKQGDKTVRTKAEVKYKGDKVDEARVELTDEVKKVLTRG	0.125
DEERVHQAVRIIKHNDPDKLRKLADPNAKFQVGDREIHGMEEYADIVAQIMEKADKITFTDIQVHNGRLTIEVVINVNGRNIQFQIFLEFHNGKLKHAHIQATSEEVQRQLNSLMG	0.674
DEERVKDLVKKIFKDIRNGDEERVRKKGKPDVKYEYADKTFEGEDAVRFIVEILKKVGAEDKTQNETVHGDKAQANFQYDKGDQTAQTTAQVEYKGDKVDKMRVKISEEVKKVVEQG	-0.116
